# Experimental data taken from article doi:10.1101/2021.09.13.460021.
# B1: GST tagged recombinant chromodomain (PfCD) of the chromodomain-containing protein PfCDP, wild type (domain or fragment)
# chain: NEVFEVEKIIMARYKLNCKRKKNRKDENLDDFEFYIKWKNYDSDENTWEPFENLSPNLKGQARKVAL
# Legend:
# [1] = target: biotinylated histone H3K9me3 peptide; assay: pull-down + far-Western, overlay or dot blot
# [2] = target: biotinylated unmodified histone H3 peptide; assay: pull-down + far-Western, overlay or dot blot
binder,measurement,setting,value
B1,Kd,[1],38 nM
same,Kd,[2],175 nM
